Assay results reported in article doi:10.1101/2020.07.19.211243.
Several values for one entry are separate records, joined by “and”; a condition that tells them apart may be missing. Equal entries are not always repeated. Where two headings read alike, the source gives them in different places.

Legend:
Assay in all cases: SDS-PAGE
[1] = molecular target: Daphnia pulex (water flea) sarcolamban peptide (Daphnia pulex)
[2] = molecular target: Daphnia pulex (water flea) sarcolamban peptide (Daphnia pulex); remark: listed apart in the source
[3] = molecular target: Triops cancriformis (tadpole shrimp) sarcolamban peptide (Triops cancriformis)

Substance | stoichiometry N [1] | stoichiometry N [2] | stoichiometry N [3]
Daphnia pulex (water flea) sarcolamban peptide | 2 | 3 and 4 and 5 | 
Triops cancriformis (tadpole shrimp) sarcolamban peptide |  |  | 2
